{"source": "patent US20160115222A1", "about": "(published 2016)", "binders": {"B1": {"name": "Anti-RSV variant antibody MAB5 (antibody, human IgG1, kappa, V domains shown)", "VH": "QVTLRESGPALVKPTQTLTLTCTFSGFSLSTAGMSVGWIRQPPGKALEWLADIWWDDKKHYNPSLKDRLTISKDTSKNQVVLKVTNMDPADTATYYCARDMIFNFYFDVWGQGTTVTVSS", "VL": "DIQMTQSPSTLSASVGDRVTITCSASSRVGYMHWYQQKPGKAPKLLIYDTSKLASGVPSRFSGSGSGTEFTLTISSLQPDDFATYYCFQGSGYPFTFGGGTKLEIKR", "notes": "also called anti-RSV heavy chain constant region variant; control anti-RSV variant antibody"}}, "key": {"[1]": {"target": "T1, SpA on S. aureus Newman strain cells (Staphylococcus aureus (Newman strain), UniProt A0A0H3K686 37-477)", "T1 construct": "also called wild type S. aureus Newman", "test": "whole cell ELISA"}, "[2]": {"target": "T2, rProtein A (HiTrap rProtein A FF column) (Staphylococcus aureus, UniProt P38507 37-327)", "T2 construct": "also called SpA", "test": "affinity chromatography"}, "[3]": {"target": "T3, Sbi-E (amino acids 28-266) (Staphylococcus aureus, UniProt Q2FVK5 28-266)", "T3 construct": "range 28-266", "test": "double immunodiffusion in agarose gel"}, "[4]": {"target": "T4, Recombinant SpA (Biovision), recombinant 4-domain SpA (Staphylococcus aureus, UniProt P38507 37-269)", "T4 construct": "domain: SpA IgBP domains 1-4; also called SpA 1-4; SpA1-4", "test": "double immunodiffusion in agarose gel"}}}
{"binder": "B1", "values": [{"measurement": "binding result", "setting": "[1]", "value": "no binding"}, {"measurement": "binding result", "setting": "[2]", "value": "no binding"}, {"measurement": "binding result", "setting": "[3]", "value": "no binding (tested: 1 mg/ml (from paragraph 493, not on the sheet))"}, {"measurement": "binding result", "setting": "[4]", "value": "no binding (tested: 1 mg/ml (from paragraph 493, not on the sheet))"}]}
